The results in this text go back to patent US6750057.

One data set deals with T1, MBP-XB3.
T1 sequence: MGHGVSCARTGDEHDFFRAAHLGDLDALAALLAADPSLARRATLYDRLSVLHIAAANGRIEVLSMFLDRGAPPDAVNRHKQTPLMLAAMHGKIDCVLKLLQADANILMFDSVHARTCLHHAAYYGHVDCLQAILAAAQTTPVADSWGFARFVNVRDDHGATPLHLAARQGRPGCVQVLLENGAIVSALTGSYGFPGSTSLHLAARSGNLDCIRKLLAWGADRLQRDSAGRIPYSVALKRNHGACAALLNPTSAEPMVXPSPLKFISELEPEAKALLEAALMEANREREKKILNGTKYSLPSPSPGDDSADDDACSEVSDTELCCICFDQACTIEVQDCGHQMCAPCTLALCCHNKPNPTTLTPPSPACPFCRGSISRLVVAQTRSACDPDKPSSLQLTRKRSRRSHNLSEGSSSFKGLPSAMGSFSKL

GST-XA21: the “transphosphorylation assay with [gamma-32P]ATP” value was “GST-XA21 phosphorylated itself and MBP-XB3, but not MBP alone” in the data set with MBP-XB3; “GST-XA21 phosphorylated itself and MBP-XB3, but not MBP alone” in the data set on Native MBP [MBP: P0AEX9].
